This assay addresses PDGF receptor PDGFRβ on the surface of 293-SL/PR cells (transformed 293T cell line). Description: cell-based or functional assay.

Turning to “recombinant human PDGF B (rhPDGF B) (from UniProt P01127 82-190) (ligand)”, the bioactivity by luciferase assay in 293-SL/PR reporter cells; PDGF at 30 ng/mL lyophilized with 3 mg/mL collagen (experimental group) came out at 310000 RLU/sec and the bioactivity by luciferase assay in 293-SL/PR reporter cells; PDGF solution (control group) at 120 ng/mL is 340000 RLU/sec.

The record behind these values is patent publication US20220061310A1.
